Data from publication PMC10502159 (2023).

B1: procathepsin L (pCTS-L) 17-333 (protein)
chain: ATLTFDHSLEAQWTKWKAMHNRLYGMNEEGWRRAVWEKNMKMIELHNQEYREGKHSFTMAMNAFGDMTSEEFRQVMNGFQNRKPRKGKVFQEPLFYEAPRSVDWREKGYVTPVKNQGQCGSCWAFSATGALEGQMFRKTGRLISLSEQNLVDCSGPQGNEGCNGGLMDYAFQYVQDNGGLDSEESYPYEATEESCKYNPKYSVANDTGFVDIPKQEKALMKAVATVGPISVAIDAGHESFLFYKEGIYFEPDCSSEDMDHGVLVVGYGFESTESDNNKYWLVKNSWGEEWGMGGYVKMAKDRRNHCGIASAASYPTV
modifications: mAb20 pre-exposed
B2: procathepsin L (pCTS-L) 17-333 (protein)
chain: B1 chain
modifications: control c-mAb pre-exposed
B3: procathepsin L (pCTS-L) 17-333 (protein)
chain: B1 chain

How the values were obtained:
RAGE 1-344 = RAGE 1-344 (Homo sapiens, UniProt Q15109); experiment: SPR
RAGE 1-344, sequence (Q15109 1-344): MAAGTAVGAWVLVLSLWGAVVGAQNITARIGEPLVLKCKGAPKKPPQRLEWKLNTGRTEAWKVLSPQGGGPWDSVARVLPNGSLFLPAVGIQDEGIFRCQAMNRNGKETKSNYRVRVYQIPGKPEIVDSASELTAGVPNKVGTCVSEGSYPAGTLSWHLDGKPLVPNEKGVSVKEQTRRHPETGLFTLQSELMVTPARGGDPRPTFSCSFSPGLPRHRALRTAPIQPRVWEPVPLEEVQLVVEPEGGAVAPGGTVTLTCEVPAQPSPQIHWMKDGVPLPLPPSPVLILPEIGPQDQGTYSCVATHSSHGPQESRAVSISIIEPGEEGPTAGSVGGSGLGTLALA

TLR4 1-631 [1] = target: T1, TLR4 1-631 (Homo sapiens, UniProt O00206); experiment: SPR
T1 sequence (O00206 1-631): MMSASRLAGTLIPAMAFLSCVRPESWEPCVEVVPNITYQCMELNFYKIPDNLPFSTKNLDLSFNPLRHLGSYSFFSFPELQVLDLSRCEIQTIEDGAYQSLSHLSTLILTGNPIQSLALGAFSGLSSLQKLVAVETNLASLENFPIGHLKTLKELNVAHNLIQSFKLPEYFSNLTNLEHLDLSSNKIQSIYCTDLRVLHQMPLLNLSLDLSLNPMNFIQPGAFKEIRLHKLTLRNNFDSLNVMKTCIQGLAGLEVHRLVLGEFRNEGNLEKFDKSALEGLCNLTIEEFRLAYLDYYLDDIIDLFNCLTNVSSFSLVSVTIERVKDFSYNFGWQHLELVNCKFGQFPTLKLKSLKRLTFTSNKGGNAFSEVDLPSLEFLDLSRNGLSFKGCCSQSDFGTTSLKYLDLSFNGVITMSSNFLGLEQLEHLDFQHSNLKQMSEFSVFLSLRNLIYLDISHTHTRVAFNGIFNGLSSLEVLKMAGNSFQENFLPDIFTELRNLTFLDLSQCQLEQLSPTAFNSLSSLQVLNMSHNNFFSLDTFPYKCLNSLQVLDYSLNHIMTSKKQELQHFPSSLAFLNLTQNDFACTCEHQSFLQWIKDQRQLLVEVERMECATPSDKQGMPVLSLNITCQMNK

TLR4 1-631 [2] = target: T1, TLR4 1-631; experiment: SPR (steady state)

Binder | Kd (RAGE 1-344) [µM] | Kd (TLR4 1-631 [1]) [µM] | Kd (TLR4 1-631 [2]) [µM]
B1 | 0.0304 | 1.14 | 
B2 | 0.0031 | 0.0203 | 
B3 |  |  | < 0.0283
